In US20150087577A1 (POLYPHOR, published 2015):
Bridges are numbered along the chain shown (N, C = ends). Primed or numbered codes have the meaning given here. [ ]: non-standard residue; d: D form. A8″‑42 = template L-Pro residue whose 4-amino group is acylated with CH3-(OCH2CH2)2-OCH2-CO (2-[2-(2-methoxyethoxy)ethoxy]acetyl), per the notes; 2Nal = N[C@@H](Cc1ccc2ccccc2c1)C(=O)O; 4Pal = N[C@@H](Cc1ccncc1)C(=O)O; Cit = NC(=O)NCCC[C@H](N)C(=O)O; Orn = NCCC[C@H](N)C(=O)O; Dab = NCC[C@H](N)C(=O)O

Molecular target: human CXCR4 (human, UniProt P61073 1-352)
Assay: cell-based or functional assay

Chain of human CXCR4 (P61073 whole entry): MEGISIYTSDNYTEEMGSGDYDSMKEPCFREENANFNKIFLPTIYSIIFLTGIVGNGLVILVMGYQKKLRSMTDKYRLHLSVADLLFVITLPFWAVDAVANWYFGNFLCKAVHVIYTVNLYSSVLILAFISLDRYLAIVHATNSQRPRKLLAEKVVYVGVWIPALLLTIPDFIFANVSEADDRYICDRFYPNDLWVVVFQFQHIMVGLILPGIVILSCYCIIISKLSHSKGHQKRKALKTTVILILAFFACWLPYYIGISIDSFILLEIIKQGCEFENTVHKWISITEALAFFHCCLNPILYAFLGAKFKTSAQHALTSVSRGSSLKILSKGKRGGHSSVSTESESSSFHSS

| IC50 (nM) Ca2+ assay (method 2) | IC50 (nM) Ca2+ assay (method 1) | Binder |
| --- | --- | --- |
| 9.4 nM |  | cyclo(Y[4Pal]TCRG[dP]RRWCYQK[dP]P) (disulfide 4-11; SMILES C[C@@H](O)[C@@H]1NC(=O)[C@H](Cc2ccncc2)NC(=O)[C@H](Cc2ccc(O)cc2)NC(=O)[C@@H]2CCCN2C(=O)[C@H]2CCCN2C(=O)[C@H](CCCCN)NC(=O)[C@H](CCC(N)=O)NC(=O)[C@H](Cc2ccc(O)cc2)NC(=O)[C@@H]2CSSC[C@H](NC1=O)C(=O)N[C@@H](CCCNC(=N)N)C(=O)NCC(=O)N1CCC[C@@H]1C(=O)N[C@@H](CCCNC(=N)N)C(=O)N[C@@H](CCCNC(=N)N)C(=O)N[C@@H](Cc1c[nH]c3ccccc13)C(=O)N2) [Example 119] |
| 1.3 nM |  | cyclo(GR[Cit]CRG[dP]RR[2Nal]CY[Cit]K[dP]P) (disulfide 4-11; SMILES N=C(N)NCCC[C@@H]1NC(=O)CNC(=O)[C@@H]2CCCN2C(=O)[C@H]2CCCN2C(=O)[C@H](CCCCN)NC(=O)[C@H](CCCNC(N)=O)NC(=O)[C@H](Cc2ccc(O)cc2)NC(=O)[C@@H]2CSSC[C@H](NC(=O)[C@H](CCCNC(N)=O)NC1=O)C(=O)N[C@@H](CCCNC(=N)N)C(=O)NCC(=O)N1CCC[C@@H]1C(=O)N[C@@H](CCCNC(=N)N)C(=O)N[C@@H](CCCNC(=N)N)C(=O)N[C@@H](Cc1ccc3ccccc3c1)C(=O)N2) [Example 114] |
| 0.62 nM |  | cyclo(YR[Cit]CRG[dP]RRYC[Cit]YK[dP]P) (disulfide 4-11; SMILES N=C(N)NCCC[C@@H]1NC(=O)[C@@H]2CSSC[C@H](NC(=O)[C@H](Cc3ccc(O)cc3)NC(=O)[C@H](CCCNC(=N)N)NC(=O)[C@H](CCCNC(=N)N)NC(=O)[C@H]3CCCN3C(=O)CNC1=O)C(=O)N[C@@H](CCCNC(N)=O)C(=O)N[C@@H](Cc1ccc(O)cc1)C(=O)N[C@@H](CCCCN)C(=O)N1CCC[C@@H]1C(=O)N1CCC[C@H]1C(=O)N[C@@H](Cc1ccc(O)cc1)C(=O)N[C@@H](CCCNC(=N)N)C(=O)N[C@@H](CCCNC(N)=O)C(=O)N2) [Example 113] |
|  | 300 nM | cyclo(YR[Cit]FRVPRR[2Nal]VY[Cit]K[dP]P) (SMILES CC(C)[C@@H]1NC(=O)[C@H](Cc2ccc3ccccc3c2)NC(=O)[C@H](CCCNC(=N)N)NC(=O)[C@H](CCCNC(=N)N)NC(=O)[C@@H]2CCCN2C(=O)[C@H](C(C)C)NC(=O)[C@H](CCCNC(=N)N)NC(=O)[C@H](Cc2ccccc2)NC(=O)[C@H](CCCNC(N)=O)NC(=O)[C@H](CCCNC(=N)N)NC(=O)[C@H](Cc2ccc(O)cc2)NC(=O)[C@@H]2CCCN2C(=O)[C@H]2CCCN2C(=O)[C@H](CCCCN)NC(=O)[C@H](CCCNC(N)=O)NC(=O)[C@H](Cc2ccc(O)cc2)NC1=O) [Example 22] |
| 8.1 nM |  | cyclo(YHTCRG[dP]RHWCYQK[dP]P) (disulfide 4-11; SMILES C[C@@H](O)[C@@H]1NC(=O)[C@H](Cc2c[nH]cn2)NC(=O)[C@H](Cc2ccc(O)cc2)NC(=O)[C@@H]2CCCN2C(=O)[C@H]2CCCN2C(=O)[C@H](CCCCN)NC(=O)[C@H](CCC(N)=O)NC(=O)[C@H](Cc2ccc(O)cc2)NC(=O)[C@@H]2CSSC[C@H](NC1=O)C(=O)N[C@@H](CCCNC(=N)N)C(=O)NCC(=O)N1CCC[C@@H]1C(=O)N[C@@H](CCCNC(=N)N)C(=O)N[C@@H](Cc1c[nH]cn1)C(=O)N[C@@H](Cc1c[nH]c3ccccc13)C(=O)N2) [Example 120] |
| 1.6 nM |  | cyclo(YR[Cit]C[Dab]G[dP]RRWCYQK[dP]P) (disulfide 4-11; SMILES N=C(N)NCCC[C@@H]1NC(=O)[C@H](CCCNC(=N)N)NC(=O)[C@H]2CCCN2C(=O)CNC(=O)[C@H](CCN)NC(=O)[C@@H]2CSSC[C@H](NC(=O)[C@H](Cc3c[nH]c4ccccc34)NC1=O)C(=O)N[C@@H](Cc1ccc(O)cc1)C(=O)N[C@@H](CCC(N)=O)C(=O)N[C@@H](CCCCN)C(=O)N1CCC[C@@H]1C(=O)N1CCC[C@H]1C(=O)N[C@@H](Cc1ccc(O)cc1)C(=O)N[C@@H](CCCNC(=N)N)C(=O)N[C@@H](CCCNC(N)=O)C(=O)N2) [Example 111] |
| 3 nM |  | cyclo(YR[Cit]CRG[dP][Dab]RWCYQK[dP]P) (disulfide 4-11; SMILES N=C(N)NCCC[C@@H]1NC(=O)[C@@H]2CSSC[C@H](NC(=O)[C@H](Cc3c[nH]c4ccccc34)NC(=O)[C@H](CCCNC(=N)N)NC(=O)[C@H](CCN)NC(=O)[C@H]3CCCN3C(=O)CNC1=O)C(=O)N[C@@H](Cc1ccc(O)cc1)C(=O)N[C@@H](CCC(N)=O)C(=O)N[C@@H](CCCCN)C(=O)N1CCC[C@@H]1C(=O)N1CCC[C@H]1C(=O)N[C@@H](Cc1ccc(O)cc1)C(=O)N[C@@H](CCCNC(=N)N)C(=O)N[C@@H](CCCNC(N)=O)C(=O)N2) [Example 109] |
| 14.5 nM |  | cyclo(YR[Cit]CRG[dP]RRWCY[Cit]K[dP][A8″‑42]) (disulfide 4-11) [Example 116] |
| 7.6 nM |  | cyclo(YRTCRG[dP][4Pal]RWCYQK[dP]P) (disulfide 4-11; SMILES C[C@@H](O)[C@@H]1NC(=O)[C@H](CCCNC(=N)N)NC(=O)[C@H](Cc2ccc(O)cc2)NC(=O)[C@@H]2CCCN2C(=O)[C@H]2CCCN2C(=O)[C@H](CCCCN)NC(=O)[C@H](CCC(N)=O)NC(=O)[C@H](Cc2ccc(O)cc2)NC(=O)[C@@H]2CSSC[C@H](NC1=O)C(=O)N[C@@H](CCCNC(=N)N)C(=O)NCC(=O)N1CCC[C@@H]1C(=O)N[C@@H](Cc1ccncc1)C(=O)N[C@@H](CCCNC(=N)N)C(=O)N[C@@H](Cc1c[nH]c3ccccc13)C(=O)N2) [Example 118] |
| 6.5 nM |  | cyclo(YR[Cit]CRG[dP]RRWCY[Cit]Q[dP]P) (disulfide 4-11; SMILES N=C(N)NCCC[C@@H]1NC(=O)[C@@H]2CSSC[C@H](NC(=O)[C@H](Cc3c[nH]c4ccccc34)NC(=O)[C@H](CCCNC(=N)N)NC(=O)[C@H](CCCNC(=N)N)NC(=O)[C@H]3CCCN3C(=O)CNC1=O)C(=O)N[C@@H](Cc1ccc(O)cc1)C(=O)N[C@@H](CCCNC(N)=O)C(=O)N[C@@H](CCC(N)=O)C(=O)N1CCC[C@@H]1C(=O)N1CCC[C@H]1C(=O)N[C@@H](Cc1ccc(O)cc1)C(=O)N[C@@H](CCCNC(=N)N)C(=O)N[C@@H](CCCNC(N)=O)C(=O)N2) [Example 121] |
| 4.6 nM |  | cyclo(YR[Cit]CRG[dP]RRWCYQK[dP]P) (disulfide 4-11; SMILES N=C(N)NCCC[C@@H]1NC(=O)[C@@H]2CSSC[C@H](NC(=O)[C@H](Cc3c[nH]c4ccccc34)NC(=O)[C@H](CCCNC(=N)N)NC(=O)[C@H](CCCNC(=N)N)NC(=O)[C@H]3CCCN3C(=O)CNC1=O)C(=O)N[C@@H](Cc1ccc(O)cc1)C(=O)N[C@@H](CCC(N)=O)C(=O)N[C@@H](CCCCN)C(=O)N1CCC[C@@H]1C(=O)N1CCC[C@H]1C(=O)N[C@@H](Cc1ccc(O)cc1)C(=O)N[C@@H](CCCNC(=N)N)C(=O)N[C@@H](CCCNC(N)=O)C(=O)N2) [Example 108] |
| 3.4 nM |  | cyclo(YR[Cit]CRG[dP]R[Orn]WCY[Cit]K[dP]P) (disulfide 4-11; SMILES N=C(N)NCCC[C@@H]1NC(=O)[C@@H]2CSSC[C@H](NC(=O)[C@H](Cc3c[nH]c4ccccc34)NC(=O)[C@H](CCCN)NC(=O)[C@H](CCCNC(=N)N)NC(=O)[C@H]3CCCN3C(=O)CNC1=O)C(=O)N[C@@H](Cc1ccc(O)cc1)C(=O)N[C@@H](CCCNC(N)=O)C(=O)N[C@@H](CCCCN)C(=O)N1CCC[C@@H]1C(=O)N1CCC[C@H]1C(=O)N[C@@H](Cc1ccc(O)cc1)C(=O)N[C@@H](CCCNC(=N)N)C(=O)N[C@@H](CCCNC(N)=O)C(=O)N2) [Example 117] |
| 1.7 nM |  | cyclo(YRTCRG[dP][Dab]RWCYQK[dP]P) (disulfide 4-11; SMILES C[C@@H](O)[C@@H]1NC(=O)[C@H](CCCNC(=N)N)NC(=O)[C@H](Cc2ccc(O)cc2)NC(=O)[C@@H]2CCCN2C(=O)[C@H]2CCCN2C(=O)[C@H](CCCCN)NC(=O)[C@H](CCC(N)=O)NC(=O)[C@H](Cc2ccc(O)cc2)NC(=O)[C@@H]2CSSC[C@H](NC1=O)C(=O)N[C@@H](CCCNC(=N)N)C(=O)NCC(=O)N1CCC[C@@H]1C(=O)N[C@@H](CCN)C(=O)N[C@@H](CCCNC(=N)N)C(=O)N[C@@H](Cc1c[nH]c3ccccc13)C(=O)N2) [Example 110] |
| 7.8 nM |  | cyclo(YR[Cit]CRG[dP]RRYCY[Cit]K[dP]P) (disulfide 4-11; SMILES N=C(N)NCCC[C@@H]1NC(=O)[C@@H]2CSSC[C@H](NC(=O)[C@H](Cc3ccc(O)cc3)NC(=O)[C@H](CCCNC(=N)N)NC(=O)[C@H](CCCNC(=N)N)NC(=O)[C@H]3CCCN3C(=O)CNC1=O)C(=O)N[C@@H](Cc1ccc(O)cc1)C(=O)N[C@@H](CCCNC(N)=O)C(=O)N[C@@H](CCCCN)C(=O)N1CCC[C@@H]1C(=O)N1CCC[C@H]1C(=O)N[C@@H](Cc1ccc(O)cc1)C(=O)N[C@@H](CCCNC(=N)N)C(=O)N[C@@H](CCCNC(N)=O)C(=O)N2) [Example 112] |
| 2.7 nM |  | cyclo(YR[Cit]CRG[dP]RR[2Nal]CYQK[dP]P) (disulfide 4-11; SMILES N=C(N)NCCC[C@@H]1NC(=O)[C@@H]2CSSC[C@H](NC(=O)[C@H](Cc3ccc4ccccc4c3)NC(=O)[C@H](CCCNC(=N)N)NC(=O)[C@H](CCCNC(=N)N)NC(=O)[C@H]3CCCN3C(=O)CNC1=O)C(=O)N[C@@H](Cc1ccc(O)cc1)C(=O)N[C@@H](CCC(N)=O)C(=O)N[C@@H](CCCCN)C(=O)N1CCC[C@@H]1C(=O)N1CCC[C@H]1C(=O)N[C@@H](Cc1ccc(O)cc1)C(=O)N[C@@H](CCCNC(=N)N)C(=O)N[C@@H](CCCNC(N)=O)C(=O)N2) [Example 115] |
